The nature of the data set: label from the status in PepcDB records.

With “MSETATWQPSASIPNLLKRAAIMAEIRRFFADRGVLEVETPCMSQATVTDIHLFPFETRFVGPGHSQGINLYLMTSPEYHMKRLLAAGCGPVFQLCRSFRNEEMGRHHNPEFTMLEWYRPHYDMYRLMNEVDDLLQQVLDCQPAESLSYQQAFQRHLEIDPLSADKTQLREAAAKLDLSNIADTEEDRDTLLQLLFTMGVEPHIGKEKPTFIYHFPASQASLAQISTEDHRVAERFEVYYKGIELANGFHELTDAREQQQRFEQDNRKRAARGLPQQPIDQNLLDALAAGLPDCSGVALGVDRLVMLALGAESLADVIAFTVDRA”, the protein production result was “not failed”.

As to “MSFASETKKELTHMDVSDSDAKVELAAFIRMNGAISFSNQLVIMDVQTENAAIARRMYQLLKDLYEVPIELLVRRKMKLKKNNVYIVRLKSGTRGILEDLRILEPPMTFTKSIDRGFVKKRSAKRAYLRGAFLASGSVNNPETSSYHLEIFSVYEEHNEAICALMNQFDLNARTLERKNGFITYLKEAEKITEFLSIIGATSALLHFEDVRIMRDMRNSVNRLVNCETANLNKTINAAVRQIDNIKYIQSTVGLEALPERLREIAALRIANEDVTLKELGEMLTTGQVSKSGINHRLRKLDQIAERLRSGETPAQVGLKVSNS”, the protein production entry is “failed”.

For “MSFEEFTPLNEKSLVDYIKSTPALSSKIGADKSDDDLVIKEVGDGNLNFVFIVVGSSGSLVIKQALPYIRCIGESWPMTKERAYFEATTLRKHGNLSPDHVPEVYHFDRTMALIGMRYLEPPHIILRKGLIAGIEYPFLADHMSDYMAKTLFFTSLLYHDTTEHRRAVTEFCGNVELCRLTEQVVFSDPYRVSTFNRWTSPYLDDDAKAVREDSALKLEIAELKSMFCERAQALIHGDLHTGSVMVTQDSTQVIDPEFSFYGPMGFDIGAYLGNLILAFFAQDGHATQENDRKEYKQWILRTIEQTWNLFNKRFIALWDQNKDGPGEAYLADIYNNTEVLKFVQENYMRNLLHDSLGFGAAKMIRRIVGVAHVEDFESIEEDKRRAICERSALEFAKMLLKERRKFKSIGEVVSAIQQQS”, the protein production entry is given as “failed”.

For the sequence “MSGDAATDADAGRAGPGGVFGVGFRSLLRREILRFVRRPRNTFAPPAITNVLYFAVFGVILGQRIDDIAGFDYIVFLLPGLVVLGAISNAFENASFSIFHGRWNEYIHETLTAPLSYSSMVLAYVFAAALRGIIVGLIIVAVGLVFTTVPVNEPLYLAAFMVVVPLLFASLGVIGGLVAEDFDDLTVMNQFILRPLVFFGAVFYSLEILPPLYRTLSLLNPMVYMVNGVRYGFLGYQEVDPLASLAVLSGLTAAVIVLDIYLFKRGYGLID”, the protein production result is listed as “failed”.

In the case of “MSGFDLIIFDCDGVLVDSEIIAAQVESRLLTEAGYPISVEEMGERFAGMTWKNILLQVESEASIPLSASLLDKSEKLLDMRLERDVKIIDGVKFALSRLTTPRCICSNSSSHRLDMMLTKVGLKPYFAPHIYSAKDLGADRVKPKPDIFLHGAAQFGVSPDRVVVVEDSVHGIHGARAAGMRVIGFTGASHTYPSHADRLTDAGAETVISRMQDLPAVIAAMAEWEGAF”, the protein production result was “not failed”.

As for “MSGLRAGHMPKGRLSGRPSFYFFSQAKLMSRQLDHGRETLMDIFHRHRLSNEGYAASVLERAMQTAEHRPEALVWKGMAALAHNPKLAFLFFINAAQLLPDRADVQALVGRALLAQGLAVLATRYLTQAWQKLPDDASLRMLLWQARSQSEPPATLRSMILAHLPEINAPKELAQVIKLLAAQADAPRRIGVVRYLETHREIQGWAIDLGNLQAPASLKIEADSVNVDAVASIPHPLLSAAGLCTTHGGLRVSVPNPKAQVHIRFADNTHLVGSPVFAMPSFVPPIEQGTQVEQKHVDVLIPVYNGLHETLECINSALEARKLNRTPHRLVVIEDATPVPALAKALKMLAGKGKITLVNNAVNMGFIRTMNRAMALSPGRDVVWLNADTRVQGNWLDRLRNIAHSSADIASVTPFTNNGELMSFPQSQVSHAMPNAREQAALDELAKHANISPVEIETGCGFCLYIKRAALNQVGYLDEVYLARGYGEETDWCLRARSFGWRHMGAPNVFVAHQGGISFGAEKTLRVAHNNAILRRRYPGASARYSAFCLRDPIKAARDALQRARLARFAQQSDEQKASQWPMEAGNTLHIHDGTGADSTLSLVWHRDSHRTWVTLKAPLAPLPLELDYEMPGEFSELVQNLATLPLKGVVLEHQVQCPSKLCDLPSLLNIPYTIVHRDGHLQGLDATYDWQRLANRAESVVLPWQSWHSAFAEAFPQANLVIQPCAELPTPATSQPNILLIGDALDDTDIIQTWVRLGRRITRERLPLTLLVKQDTPWLKTLSATGAVQALPQVTGFSLPEIAKATGCDAVVSLAASPGEKWLAPELASQLDLPLYTRCHSLGTEAGATCVTQLPFSLSQA”, the protein production entry is “failed”.

On to “MSGPGSDPVFAALTRPQMVAGVTYSYAVFNLIVTMEAFLISKSFWALLIAPLVHAVGYLGCLNEPRFFDLWITKVSRCPNIRNRGFWQANSYRP”, for which the protein production entry is “failed”.

For the sequence “MSGQHRTRVGGVILAAGRSSRYESGNKLLATIDGKAVVRQVTETACKSSLSDAVAVLGHEKVAVAAALDGLSLSVQHNDEYATGQSASVRHGVEFARSAGWDAALFLLGDMPFVRVETIEELLEAYRTGTATVVVPEHEGRRGNPVLFDNCHFDSLASVSGDRGGRDIIETTEKTAFIEVSDPGVHWDIDTDADLAEFTDRRDSLLEHHHHHH”, the protein production entry was “not failed”.

With “MSGSLEIPGLDDGLLPVETGYGLFQGTAKKRVVICNDNDKFRHSGPLPRALCGSFAAIGLLPLPVVETRPAPPPKVAPITPALQGKACGQAVFEGLRNKNAVETVDNLPALRQTARTGKRWKALESLMQETPAIIYKIVPETLWTAARAEGMFEGAAIDLTDGFIHFSTAKQVAETAARHFSGQVDLLLIAVDGAALGDKLVYEPSRGGDLFPHLYAPLPFSAVLWETPLSLDHDGQHQFPEILLEHHHHHH”, the protein production entry is “failed”.

In the case of “MSGTLLAFDFGTKSIGVAVGQRITGTARPLPAIKAQDGTPDWNIIERLLKEWQPDEIIVGLPLNMDGTEQPLTARARKFANRIHGRFGVEVKLHDERLSTVEARSGLFEQGGYRALNKGKVDSASAVIILESYFEQGY”, the protein production result is given as “not failed”.

Regarding “MSGVRFPSGSLKDVRFFLHLFFSSKYGIIYVRYLDEEGTIMKQIIISVGREFGSGGHIVAQKLAEHYDIPIFNKELLEEMARKEGYSEKALEKYDEKPVNFGFMPLPYAGGNIPIEQEIAMKQFEFIKNKADAGESFVIVGRCADEILAYNPNLVSVFITGDRESKIARVMDREGLDRKQAINKMKRMDKIRKTYHNFYCRNKWGDSRGYDICINTGKTDFDTAKNMVVECVDKLKERSE”, the protein production entry was “failed”.

On to “MSGWYELSKSSNDQFKFVLKAGNGEVILTSELYTGKSGAMNGIESVQTNSPIEARYAKEVAKNDKPYFNLKAANHQIIGTSQMYSSTAARDNGIKSVMENGKTTTIKDLTLEHHHHHH”, for which the protein production entry was “not failed”.

“MSHAIQIREAHFPGRAPIDAYGNGGFRFADMSHRGSIICIPSGIYGIDMTGPVPTQEDISRVLEESDQIEVLLIGTGVELLRLPEELRVLLWEKRISSDTMSTGAAVRTFNVLLAEDRAVAALLFAVE”: the protein production result was “not failed”.

Regarding “MSHCSCHDKPQHSLLPAAYRILSITRHTPLEWNFRVAVDFPAHWGQFVEVSLPRVGEAPISVSDYGDGWIDLLIRNLGKVTSALFTLKEGDNVWLRGCYGNGYPVDTLRHKPLLVVAGGTGVAPVKGLMRYFVENPQEIGQLDMILGYKNRDCVLYKEEMATWRGKHNLVLTLDEGEADDRYQIGRVTDRLADMTLSDIDTMQAIVVGPPIMITFTVKMLLQKGLKPEQIWVDYERRMACSVGKCGHCRMGEVYVCTDGPIFNYAVAQRFAD”, the protein production result is given as “failed”.

For “MSHHNPLVSVVIPSKNRPDLVIATLVSVIDQTYDNIEIIVVDDGSDMPLAPLLKDRFSDRVLCLRNDQSLGGAVARNRGAQSAHGDYITFLDDDDLWLPKKLEMQVDAFSKHGVDIGVVYCGFDFLCKEEIVPRQNKFHNDYDLSIAVLSGCPFGSPTPLIRKHYFDMVGGFDRELPSCQDWDLWIRLSKVCGFYPVKESLALYRVHGDQISTNLRKKIDGRKMVLAKHYDEIKNYPRVLSAHYSRIGSLCVLADEHVEARDFFSKALASNMFDGGSFVHLVLQFLCRPLEKWLIERFSVNTIDGIKVIHLEHHHHHH”, the protein production result is on record as “failed”.
